Experimental data: the Human Domainome abundance scans (Beltran et al. 2025)
± gives the uncertainty stated by the source.

B1: Nuclear receptor subfamily 4 group A member 2, residues 260 to 336; numbered along this chain, P43354 (parent)
chain: EGLCAVCGDNAACQHYGVRTCEGCKGFFKRTVQKNAKYVCLANKNCPVDKRRRNRCQYCRFQKCLAVGMVKEVVRTD

Variants of: B1
Assay: abundance fitness (aPCA) (normalised: wild type 0, dead -1); higher = more abundant; growth selection in yeast, the domain comes from the species named
Details: Homo sapiens

| Variant | abundance fitness |
| --- | --- |
| EGLCAVCGDNAACQHYGVRTCEGCKGFFKRTVQKNAKYVCLANKNCPVDKRRRNRCQYCRFQKALAVGMVKEVVRTD | -0.163 ± 0.11 |
| EGLCAVCGDNAACQHYGVRTCEGCKGFFKRTVQKNAKYVCLANKNCPVDKRRRNRCQYCRFQKRLAVGMVKEVVRTD | -0.608 ± 0.14 |
| EGLCAVCGDNAACQHYGVRTCEGCKGFFKRTVQKNAKYVCLANKNCPVDKRRRNRCQYCRFQKFLAVGMVKEVVRTD | -0.848 ± 0.23 |
| EGLCAVCGDNAACQHYGVRTCEGCKGFFKRTVQKNAKYVCLANKNCPVDKRRRNRCQYCRFQKILAVGMVKEVVRTD | -0.399 ± 0.36 |
| EGLCAVCGDNAACQHYGVRTCEGCKGFFKRTVQKNAKYVCLANKNCPVDKRRRNRCQYCRFQKLLAVGMVKEVVRTD | -0.372 ± 0.08 |
| EGLCAVCGDNAACQHYGVRTCEGCKGFFKRTVQKNAKYVCLANKNCPVDKRRRNRCQYCRFQKWLAVGMVKEVVRTD | -0.859 ± 0.1 |
| EGLCAVCGDNAACQHYGVRTCEGCKGFFKRTVQKNAKYVCLANKNCPVDKRRRNRCQYCRFQKGLAVGMVKEVVRTD | -0.277 ± 0.035 |
| EGLCAVCGDNAACQHYGVRTCEGCKGFFKRTVQKNAKYVCLANKNCPVDKRRRNRCQYCRFQKSLAVGMVKEVVRTD | -0.397 ± 0.16 |
| EGLCAVCGDNAACQHYGVRTCEGCKGFFKRTVQKNAKYVCLANKNCPVDKRRRNRCQYRRFQKCLAVGMVKEVVRTD | -1.17 ± 0.2 |
| EGLCAVCGDNAACQHYGVRTCEGCKGFFKRTVQKNAKYVCLANKNCPVDKRRRNRCQYVRFQKCLAVGMVKEVVRTD | -0.919 ± 0.096 |
| EGLCAVCGDNAACQHYGVRTCEGCKGFFKRTVQKNAKYVCLANKNCPVDKRRRNRCQYERFQKCLAVGMVKEVVRTD | -0.318 ± 0.29 |
| EGLCAVCGDNAACQHYGVRTCEGCKGFFKRTVQKNAKYVCLANKNCPVDKRRRNRCQYFRFQKCLAVGMVKEVVRTD | -1.03 ± 0.22 |
| EGLCAVCGDNAACQHYGVRTCEGCKGFFKRTVQKNAKYVCLANKNCPVDKRRRNRCQYWRFQKCLAVGMVKEVVRTD | -1.33 ± 0.22 |
| EGLCAVCGDNAACQHYGVRTCEGCKGFFKRTVQKNAKYVCLANKNCPVDKRRRNRCQYCRFKKCLAVGMVKEVVRTD | 0.079 ± 0.28 |
| EGLCAVCGDNAACQHYGVRTCEGCKGFFKRTVQKNAKYVCLANKNCPVDKRRRNRCQYCRFFKCLAVGMVKEVVRTD | -0.31 ± 0.14 |
| EGLCAVCGDNAACQHYGVRTCEGCKGFFKRTVQKNAKYVCLANKNCPVDKRRRNRCQYCRFCKCLAVGMVKEVVRTD | -0.153 ± 0.064 |
| EGLCAVCGDNAACQHYGVRTCEGCKGFFKRTVQKNAKYVCLANKNCPVDKRRRNRCQYCRFGKCLAVGMVKEVVRTD | -0.297 ± 0.041 |
| EGLCAVCGDNAACQHYGVRTCEGCKGFFKRTVQKNAKYVCLANKNCPVDKRRRNRCQYCRFAKCLAVGMVKEVVRTD | -0.095 ± 0.11 |

| Variant | abundance fitness |
| --- | --- |
| EGLCAVCGDNAACQHYGVRTCEGCKGFFKRTVQKNAKYVCLANKNCPVDKRRRNRCQYCRFVKCLAVGMVKEVVRTD | -0.137 ± 0.048 |
| EGLCAVCGDNAACQHYGVRTCEGCKGFFKRTVQKNAKYVCLANKNCPVDKRRRNRCQYCRFIKCLAVGMVKEVVRTD | -0.241 ± 0.23 |
| EGLCAVCGDNAACQHYGVRTCEGCKGFFKRTVQKNAKYVCLANKNCPVDKRRRNRCQYCRFEKCLAVGMVKEVVRTD | -0.245 ± 0.17 |
| EGLCAVCGDNAACQHYGVRTCEGCKGFFKRTVQKNAKYVCLANKNCPVDKRRRNRCQYCRFLKCLAVGMVKEVVRTD | -0.137 ± 0.062 |
| EGLCAVCGDNAACQHYGVRTCEGCKGFFKRTVQKNAKYVCLANKNCPVDKRRRNRCQYCRFSKCLAVGMVKEVVRTD | 0.018 ± 0.12 |
| EGLCAVCGDNAACQHYGVRTCEGCKGFFKRTVQKNAKYVCLANKNCPVDKRRRNRCQYCRFDKCLAVGMVKEVVRTD | -0.139 ± 0.23 |
| EGLCAVCGDNAACQHYGVRTCEGCKGFFKRTVQKNAKYVCLANKNCPVDKRRRNRCQYCRFRKCLAVGMVKEVVRTD | -0.234 ± 0.074 |
| EGLCAVCGDNAACQHYGVRTCEGCKGFFKRTVQKNAKYVCLANKNCPVDKRRRNRCQYCRFWKCLAVGMVKEVVRTD | -0.345 ± 0.077 |
| EGLCAVCGDNAACQHYGVRTCEGCKGFFKRTVQKNAKYVCLANKNCPVDKRRRNRCQYCRFMKCLAVGMVKEVVRTD | 0.079 ± 0.12 |
| EGLCAVCGDNAACQHYGVRTCEGCKGFFKRTVQKNAKYVCLANKNCPVDKRRRNRCQYCRFNKCLAVGMVKEVVRTD | -0.38 ± 0.34 |
| EGLCAVCGDNAACQHYGVRTCEGCKGFFKRTVQKNAKYVCLANKNCPVDKRRRNRCQYCRFQKCVAVGMVKEVVRTD | -0.096 ± 0.041 |
| EGLCAVCGDNAACQHYGVRTCEGCKGFFKRTVQKNAKYVCLANKNCPVDKRRRNRCQYCRFQKCAAVGMVKEVVRTD | -0.146 ± 0.081 |
| EGLCAVCGDNAACQHYGVRTCEGCKGFFKRTVQKNAKYVCLANKNCPVDKRRRNRCQYCRFQKCMAVGMVKEVVRTD | -0.262 ± 0.15 |
| EGLCAVCGDNAACQHYGVRTCEGCKGFFKRTVQKNAKYVCLANKNCPVDKRRRNRCQYCRFQKCTAVGMVKEVVRTD | -0.659 ± 0.32 |
| EGLCAVCGDNAACQHYGVRTCEGCKGFFKRTVQKNAKYVCLANKNCPVDKRRRNRCQYCRFQKCIAVGMVKEVVRTD | -0.274 ± 0.39 |
| EGLCAVCGDNAACQHYGVRTCEGCKGFFKRTVQKNAKYVCLANKNCPVDKRRRNRCQYCRFQKCYAVGMVKEVVRTD | -0.317 ± 0.18 |
| EGLCAVCGDNAACQHYGVRTCEGCKGFFKRTVQKNAKYVCLANKNCPVDKRRRNRCQYCRFQKCEAVGMVKEVVRTD | -0.038 ± 0.1 |
